Each block holds one binder with its values, some of them ahead of it.
Tests used:
[1] = molecular target: hGPC3-C fragment (AA359-580) (human) (UniProt P51654); assay: flow cytometry, intracellular staining of 293T cells transfected with hGPC3-C; gate set on untransfected cells
[2] = molecular target: hGPC3-C fragment (AA359-580) (human) (UniProt P51654); assay: flow cytometry, intracellular staining of 293 cells transfected with hGPC3-C; gate set on untransfected cells

Chain of hGPC3-C fragment (AA359-580) (human) (P51654 359-580 limits assumed, form in doubt): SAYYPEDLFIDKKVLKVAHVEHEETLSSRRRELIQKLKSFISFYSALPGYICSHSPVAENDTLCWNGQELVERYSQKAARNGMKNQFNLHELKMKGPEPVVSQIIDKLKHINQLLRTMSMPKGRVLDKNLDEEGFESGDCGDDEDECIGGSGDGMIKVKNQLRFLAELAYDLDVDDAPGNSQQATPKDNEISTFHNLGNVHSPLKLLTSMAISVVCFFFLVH

% of events in gate M1 [1]: 0.47%
% of cells in the positive gate [2]: 0.92%
B1: mAb 12D7 (mouse hybridoma antibody) (antibody, V domains shown)
VH: QVQLQQPGSELVRPGASVKLSCKASGYTFTSYWMHWVKQRLGQGLEWIGNIYPGSGSTNYDEKFKSKGTLTVDTSSSTAYMHLSSLTSEDSAVYYCTRGDYDWVFAYWGQGTLVTVSA
VL: DIVMTQSQKFMSTSVGDRVSVTCKASQNVGTNVAWYQQKPGQSPKALIYSASYRYSGVPDRFTGSGSGTDFTLTISNVQSEDLAEYFCQQYNSYPLTFGAGTKLELKR

% of events in gate M1 [1]: 4.03%
% of cells in the positive gate [2]: 0.75%
B2: mAb 6G11 (mouse hybridoma antibody) (antibody, V domains shown)
VH: QVQLQQPGSELVRPGASVKLSCKASGYTFTSCWMHWVKQRPGQGLEWIGNIYPGYGNTNYDEKFKNKATLTVDTSSSTAYMQLSGLTSEDSAVYYCTRGSYLYAMDYWGQGTSVTVSS
VL: DIQMNQSPSSLSASLGDTITITCHASQNINVWLSWYQQKPGNIPKLLIYKASNLHTGVPSRFSGSGSGTGFTLTISSLQPEDIATYYCQQGQSYPWTFGGGTKLEIKR

Reference: patent US20220288124A1
